The supplement of paper PMC10724198
± gives the standard deviation of the averaged measurements.

Each sequence was assayed on Saccharomyces cerevisiae (assay: protein stability index of tFT-peptide fusion (C-terminal peptide) (PSI (0-1 scale)); higher = more stable (slower turnover)). Details: genetic background: wild type; temperature: 30 C.
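Further: PSI is a weighted mean of sequencing reads over stability bins, variants kept only with over 10 reads, mCherry proximal and sfGFP distal, peptide attached via GGGS linker.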

In order of falling protein stability index:
1. LSVPPFSFTLSL  0.807 ± 0.25
2. LRHHARSYLPRL  0.805 ± 0.18
3. LRPPLASLRFSP  0.78 ± 0.11
4. LSRGGVSCWWGH  0.772 ± 0.033
5. LPRSSRFPSPSR  0.765 ± 0.012
6. LSVLPAFYPRSP  0.758 ± 0.045
7. LRANSCCPLFGS  0.739 ± 0.0036
8. LSYSLSSPRVFH  0.7337 ± 0.0022
9. LPWGGVVVGSMV  0.73 ± 0.019
10. LRTKRGKREEYD  0.73 ± 0.015
11. LRPPFFLSPLPS  0.728 ± 0.034
12. LSDDRTLFWISG  0.728 ± 0.13
13. LREKFFWTRIRR  0.724 ± 0.05
14. LSGRGVGSEGME  0.721 ± 0.14
15. LSDFSLPTFLLL  0.72 ± 0.065
16. LTPFFSRPSVLL  0.72 ± 0.019
17. LRFLPHIPSGLS  0.716 ± 0.019
18. LPTATSFNALNS  0.714 ± 0.072
19. LSLYGLLLPTFE  0.714 ± 0.037
20. LSPRTMYHAYPV  0.712 ± 0.067
21. LQCGDWVETTGS  0.709 ± 0.031
22. LTLPPLPPPSLP  0.707 ± 0.0081
23. LTPRPLPRLSPP  0.705 ± 0.028
24. LRQQTRGTIIEC  0.703 ± 0.029
25. LSTPPRLPQPSP  0.703 ± 0.051
26. LSVPWSTRPFSV  0.703 ± 0.019
27. LTHQENNIWVSR  0.703 ± 0.057
28. LSPFPSCLPPSV  0.702 ± 0.045
29. LRLHPSPPVPSR  0.7003 ± 0.0047
30. LSFFLSSALLHP  0.7 ± 0.028
31. LSKTRRPKSADM  0.7 ± 0.025
32. LSCTTSSRPSPP  0.699 ± 0.063
33. LSPIPLPPPLTS  0.699 ± 0.044
34. LTQPPPAPRVFF  0.699 ± 0.013
35. LRRAFPSSTPLK  0.698 ± 0.088
36. LSFPSPSLCRPL  0.694 ± 0.1
37. LPSPLGSSIFSN  0.693 ± 0.015
38. LRARTPPPSHLP  0.693 ± 0.02
39. LSGPLILHLTSL  0.693 ± 0.057
40. LPRVPCRLAPPP  0.689 ± 0.055
41. LQTLSTLLPSLL  0.689 ± 0.023
42. LSALPSRPCSKR  0.6893 ± 0.005
43. LQHSLNRKEIET  0.688 ± 0.014
44. LSPRPPSPPPPP  0.688 ± 0.011
45. LRSVISLSSLFS  0.686 ± 0.011
46. LPRPTRLRTTPA  0.685 ± 0.044
47. LRCWVGGALCGG  0.685 ± 0.033
48. LRGAGAGPEDVG  0.6847 ± 0.0026
49. LRPLSFPTHTLL  0.685 ± 0.021
50. LSLSNILDYFYC  0.685 ± 0.044
51. LPTHYHQSHTEP  0.681 ± 0.052
52. LRHGLASYDHCG  0.681 ± 0.02
53. LSFTFSQLLSFP  0.681 ± 0.16
54. LSTCVAESIEST  0.68 ± 0.01
55. LTGSPDSNPNSV  0.68 ± 0.084
56. LPSTHVPPEPLG  0.679 ± 0.077
57. LQLLPPGLRQLP  0.679 ± 0.0079
58. LSPLHSPCLPCP  0.679 ± 0.039
59. LSPPPSPLPPLP  0.679 ± 0.019
60. LPVSPDTLSPPL  0.678 ± 0.022
61. LRVFPVFSWFDR  0.678 ± 0.15
62. LSLSTTLSADLY  0.678 ± 0.021
63. LTLTQAPVRTDF  0.677 ± 0.018
64. LSPCPPLRPLLS  0.676 ± 0.081
65. LSPSGATFWTPS  0.676 ± 0.055
66. LSFSDPLSLPRH  0.675 ± 0.079
67. LSPGPVHDRSRP  0.675 ± 0.03
68. LSSRVYDCTRQG  0.675 ± 0.045
69. LRSLVRSRPAPP  0.6744 ± 0.0042
70. LTDITGSIRNVH  0.673 ± 0.037
71. LTPYLYPQPSSP  0.673 ± 0.031
72. LSLPRCPKGVAH  0.672 ± 0.055
73. LPTVVTAVHQGL  0.671 ± 0.014
74. LRFRPLSGRAFF  0.664 ± 0.051
75. LSRGLVVSFVLK  0.662 ± 0.014
76. LTFSRFIENHYL  0.662 ± 0.015
77. LPSSVLTAAPSA  0.661 ± 0.076
78. LRSLNIVGTTAL  0.66 ± 0.043
79. LPTPRRHFRPPP  0.657 ± 0.028
80. LSAVISHLGNSK  0.65058 ± 0.0002
81. LTDKHNETNINQ  0.6501 ± 0.0042
82. LRGGGGAGVFFG  0.6491 ± 0.0025
83. LSGTLALVVFTR  0.6464 ± 0.001
84. LTRRSPSPRTLT  0.644 ± 0.03
85. LPSLPPPPSPSS  0.641 ± 0.029
86. LSLICSLVHSIM  0.635 ± 0.016
87. LSLGVYMGVGRG  0.629 ± 0.0074
88. LRSGFVVTLSLS  0.621 ± 0.037
89. LPSLASPRLIPS  0.609 ± 0.0066
90. LPVPLPYFVSYF  0.607 ± 0.009
91. LSSFIHCLYSHC  0.606 ± 0.035
92. LSLVDCIGFFFC  0.603 ± 0.043
93. LPSLTPPPLLLS  0.582 ± 0.0083
94. LSPALPPPMSAA  0.577 ± 0.026
95. LPVPPPPVSVAN  0.554 ± 0.0089
96. LSSSLLSLLYNF  0.534 ± 0.039
97. LRLFCVLARSVV  0.528 ± 0.018
98. LRFSFFSSLFVL  0.516 ± 0.019
99. LRYSPLLFLSVV  0.513 ± 0.013
100. LSGYIFFSFRSF  0.505 ± 0.01
101. LQLFLWRVVAPV  0.477 ± 0.038
